In patent publication US20260263647A1 (Dana-Farber, published 2026):

Legend:
[1] = target: T1, human CD45 on human peripheral blood mononuclear cells (PBMCs) (human, UniProt P08575 26-1306); assay: flow cytometry on human PBMCs
T1 construct: whole, on cells; The target is inferred from the cells used (CD45+ human PBMCs); also called hCD45
T1 sequence (looked up): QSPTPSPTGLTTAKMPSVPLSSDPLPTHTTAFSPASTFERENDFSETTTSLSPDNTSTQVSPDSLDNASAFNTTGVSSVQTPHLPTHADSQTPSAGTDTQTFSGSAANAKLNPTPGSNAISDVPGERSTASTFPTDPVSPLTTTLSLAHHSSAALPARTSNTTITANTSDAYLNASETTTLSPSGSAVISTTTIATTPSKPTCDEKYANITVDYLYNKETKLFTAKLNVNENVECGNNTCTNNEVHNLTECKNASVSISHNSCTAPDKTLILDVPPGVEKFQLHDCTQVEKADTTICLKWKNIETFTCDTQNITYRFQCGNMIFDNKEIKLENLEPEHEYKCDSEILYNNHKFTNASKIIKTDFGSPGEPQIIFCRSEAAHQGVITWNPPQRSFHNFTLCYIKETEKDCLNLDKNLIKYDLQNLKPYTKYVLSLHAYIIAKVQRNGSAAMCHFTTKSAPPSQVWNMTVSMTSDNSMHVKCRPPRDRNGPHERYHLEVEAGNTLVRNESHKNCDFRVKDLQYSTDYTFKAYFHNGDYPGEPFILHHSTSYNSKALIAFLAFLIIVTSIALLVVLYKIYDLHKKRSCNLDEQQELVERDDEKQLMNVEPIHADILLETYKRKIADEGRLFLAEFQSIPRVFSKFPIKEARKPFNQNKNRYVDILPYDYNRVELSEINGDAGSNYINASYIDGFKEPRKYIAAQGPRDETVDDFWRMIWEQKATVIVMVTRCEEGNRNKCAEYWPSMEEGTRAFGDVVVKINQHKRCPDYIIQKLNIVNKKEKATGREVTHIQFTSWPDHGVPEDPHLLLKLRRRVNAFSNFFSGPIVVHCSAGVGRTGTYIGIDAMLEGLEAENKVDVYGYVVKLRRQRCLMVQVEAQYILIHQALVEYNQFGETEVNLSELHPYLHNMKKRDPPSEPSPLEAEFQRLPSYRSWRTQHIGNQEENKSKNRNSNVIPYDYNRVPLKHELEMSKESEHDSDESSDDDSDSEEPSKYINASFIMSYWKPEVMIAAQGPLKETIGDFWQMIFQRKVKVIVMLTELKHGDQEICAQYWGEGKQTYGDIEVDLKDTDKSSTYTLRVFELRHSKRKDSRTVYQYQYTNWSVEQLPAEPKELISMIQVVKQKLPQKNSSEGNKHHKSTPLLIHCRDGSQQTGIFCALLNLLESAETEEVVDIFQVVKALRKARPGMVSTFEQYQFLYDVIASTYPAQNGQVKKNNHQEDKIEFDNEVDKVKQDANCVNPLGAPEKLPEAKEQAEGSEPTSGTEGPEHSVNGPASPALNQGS

[2] = target: T1, human CD45 on human peripheral blood …; assay: flow cytometry, staining of human PBMCs with different concentrations of the minibody

- EC50 [1]: ~5 nM
- EC50 [2]: ~10 nM
B1: CD45 minibody (anti-human CD45 antibody fragment, clone BC8 scFv fused to the IgG1 CH3 domain) (other)
chain: QVQLVESGGGLVQPGGSLKLSCAASGFDFSRYWMSWVRQAPGKGLEWIGEINPTSSTINFTPSLKDKVFISRDNAKNTLYLQMSKVRSEDTALYYCARGNYYRYGDAMDYWGQGTSVTVSKISGGGGSGGGGSGGGGSGGGGSGGGGSSDIVLTQSPASLAVSLGQRATISCRASKSVSTSGYSYLHWYQQKPGQPPKLLIYLASNLESGVPARFSGSGSGTDFTLNIHPVEEEDAATYYCQHSRELPFTFGSGTKLEIKGGGSEPKSPKSADKTHTAPQPREPQVYTLPPSRDELTKNQVSLTCLVKGFYPSDIAVEWESNGQPENNYKTTPPVLDSDGSFFLYSKLTVDKSRWQQGNVFSCSVMHEALHNHYTQKSLSLSPGKDYKDDDKHHHHHH
notes: also called anti-CD45-minibody probe; human CD45-PET probe
